From patent US20130183702

Tested on: T1, cholesterol-tagged, protease-sensitive polyacrylic acid block copolymer containing the peptide GSGRSAGC (SEQ ID NO: 20), embedded in polymer-caged liposomes (PCLs)
T1 sequence: GSGRSAGC

urokinase plasminogen activator (uPA)
carboxyfluorescein release from PCLs (total fluorescent intensity), -uPA vs +uPA (25 ug/mL, fresh batch), second test: They show very little difference in total intensity and the p value is 0.6617 between the two, indicating that they are not different
carboxyfluorescein release from PCLs (total fluorescent intensity), no uPA vs 25 ug/mL uPA, first test: there was very little difference between the no uPA sample and the uPA sample, indicating that the polymer caged liposome did not have the desired sensitivity to uPA (p=0.5173)
carboxyfluorescein release from PCLs (total fluorescent intensity), no uPA vs renatured uPA, third test: there is a difference between the no uPA sample and the uPA sample with the uPA sample being significantly higher (p value 0.0071)
change in conductance (current vs. time) after adding 10^-11 mol urokinase to MgSO4-loaded PCLs: A significant increase in conductance was observed due to the release of Mg^2+ and SO4^2- from the liposomes' hydrophilic interior
fluorescence of cyanine 7.0 released from PCLs after adding urokinase-type plasminogen activator, recorded every 5 min: The highest peak was visible after 50 minutes of incubation time
